Test results reported in article PMC3760192.

Experiments:
Test in all cases: AFM force spectroscopy
MBP-CBD protein = molecular target: MBP-CBD protein
[1] = molecular target: MBP-I^N of the Oscillatoria limnetica (Oli) split intein (Oscillatoria limnetica)
[2] = molecular target: MBP-I^N of the Thermosynechococcus vulcanus (Tvu) split intein (Thermosynechococcus vulcanus)
[3] = molecular target: MBP-I^N of the Nostoc species PCC7120 (Nsp) split intein (Nostoc species PCC7120)

Fad (adhesion force) (MBP-CBD protein) [pN] | Fad (adhesion force, mode of the lognormal distribution) [1] [pN] | Fad (adhesion force, mode of the lognormal distribution) [2] [pN] | Fad (adhesion force, mode of the lognormal distribution) [3] [pN] | Substance
< 30 | – | – | – | MBP-I^C-CBD of the Oscillatoria limnetica (Oli) split intein
< 30 | – | – | – | MBP-I^C-CBD of the Thermosynechococcus vulcanus (Tvu) split intein
– | 52 | 52 | 52 | cleaved CBD-I^C of the Oscillatoria limnetica (Oli) split intein (domain or fragment)
< 30 | – | – | – | MBP-I^C-CBD of the Nostoc species PCC7120 (Nsp) split intein
– | 52 | 53 | 49 | cleaved CBD-I^C of the Thermosynechococcus vulcanus (Tvu) split intein (domain or fragment)
– | 60 | 52 | 52 | cleaved CBD-I^C of the Nostoc species PCC7120 (Nsp) split intein (domain or fragment)
